Results from the supplement of paper PMC10724198.
± gives the standard deviation of the averaged measurements.

System: Saccharomyces cerevisiae
Assay: protein stability index of tFT-peptide fusion (C-terminal peptide) (PSI (0-1 scale)); higher = more stable (slower turnover)
Details: genetic background: wild type; temperature: 30 C
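Note: PSI is a weighted mean of sequencing reads over stability bins, variants kept only with over 10 reads, mCherry proximal and sfGFP distal, peptide attached via GGGS linker.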

| Sequence | protein stability index |
| --- | --- |
| ADSWACSWLLFR | 0.613 ± 0.065 |
| SRPPPFFPPASP | 0.682 ± 0.01 |
| GSEPCPRPCGPG | 0.692 ± 0.048 |
| NFYKKLSNKMGQ | 0.662 ± 0.039 |
| PPPPSLLPLSLP | 0.608 ± 0.02 |
| PFCGSPARTTAV | 0.642 ± 0.052 |
| VGGGPAALGMWI | 0.689 ± 0.077 |
| GDVLLLGGAGER | 0.671 ± 0.07 |
| LRGAGAGPEDVG | 0.6847 ± 0.0026 |
| DIEKRNKRGVCV | 0.714 ± 0.058 |
| PPPTPSDPQNSS | 0.644 ± 0.007 |
| GPSHPPHLPPPV | 0.6855 ± 0.001 |
| NRRCAPVHPGPD | 0.7217 ± 0.0036 |
| GLKWTGLEWHFL | 0.693 ± 0.041 |
| LPGGECSLKGQQ | 0.701 ± 0.079 |
| AVGQGAGSWGWE | 0.691 ± 0.049 |
| PRPPTPPTTILN | 0.652 ± 0.032 |
| VWDGLAVAATCS | 0.597 ± 0.085 |
| FVPLFVFSCSRS | 0.5 ± 0.014 |
| AAPSTSPGPRPA | 0.652 ± 0.01 |
| PRPRTPPPLLSF | 0.687 ± 0.057 |
| RCLSISTSLCKV | 0.744 ± 0.052 |
| GGRGRRRGGVGG | 0.701 ± 0.011 |
| VCNLIRILSLVI | 0.496 ± 0.031 |
| PRPPPSPTPPLT | 0.69 ± 0.095 |
| LPGEHSEFNYLL | 0.7198 ± 0.0036 |

| Sequence | protein stability index |
| --- | --- |
| VWAVGRATARER | 0.6969 ± 0.0025 |
| LPPSSPLPPPPP | 0.77 ± 0.047 |
| RRRQAEEDERNG | 0.658 ± 0.07 |
| IRRKYEGNKEQN | 0.721 ± 0.069 |
| SSGRHCLPCANV | 0.64 ± 0.017 |
| ELRFRGITRTTV | 0.725 ± 0.052 |
| GGVGRGADASLA | 0.622 ± 0.017 |
| IIRAGVPLSISE | 0.652 ± 0.019 |
| GQAWVEITARDS | 0.748 ± 0.075 |
| LPRPHARPPLSS | 0.583 ± 0.066 |
| PMFESFHLPAPI | 0.715 ± 0.018 |
| PAPRPAPPSLPP | 0.709 ± 0.015 |
| GTIEFNKIEDFW | 0.715 ± 0.039 |
| LLPPVLPPTLPP | 0.633 ± 0.0075 |
| FSGRGSSPVAVF | 0.544 ± 0.035 |
| HERPVVLYGCTS | 0.637 ± 0.02 |
| RLRPPPRTLPTP | 0.722 ± 0.011 |
| GGGAGRGSRVWG | 0.746 ± 0.076 |
| LRPPFFLSPLPS | 0.728 ± 0.034 |
| PPPPHAPSASPP | 0.668 ± 0.022 |
| RLSSLRAFSLRS | 0.721 ± 0.026 |
| PPPPHSFTPSGH | 0.673 ± 0.12 |
| KRNCVVLLPMDR | 0.682 ± 0.23 |
| RLGAEYNWVNLS | 0.6362 ± 0.0026 |
| HPTDPPFRNTTA | 0.6996 ± 0.0043 |
